From patent US7538262B2, “GDC-2 genes conferring herbicide resistance” (Athenix Corporation, priority 2003, dated 2009)

Legend:
[1] = Assay of GDC-2 acetolactate synthase activity (acetoin colorimetric detection); assay type: biochemical; settings: 50 mM pyruvate, 1 mM TPP, 10 mM MgCl2, 0.01 mM FAD, pH 7.0, 2 hours at 37° C.
Method: Acetolactate synthases are decarboxylating enzymes that condense two pyruvate molecules to form acetolactate with the release of a CO2 moiety from one of the pyruvate substrates. In the detection of the enzymatic reaction described by Pang and Duggleby (Pang and Duggleby (1999) Biochemistry 18:5222-5231), the product acetolactate is converted to acetoin by incubation with 1% H2SO4 for 15 minutes at 60° C. followed by neutralization with KOH. The acetoin is then detected as described by Westerfeld (Westerfeld (1945) J. Biol. Chem.161:495-502), using 0.15% creatine and 1.5% alpha-naphthol (dissolved in 2.5 N NaOH). The red colored reaction product is quantified by absorbance at 525 nm.
Samples containing either 5 μg or 10 μg of GDC-2 were incubated in 50 mM pyruvate, 1 mM […] pyrophosphate, 10 mM MgCl2, 0.01 mM Flavin adenine dinucleotide (FAD), 100 mM potassium phosphate buffer pH 7.0 (total reaction volume of 50 μl) for 2 hours at 37° C. The reaction was stopped by the addition of 1 μl of 50% sulfuric acid (H2SO4) and incubated at 60° C. for 15 minutes. The reaction was neutralized by the addition of 30 μl of 1 N KOH followed by the addition of 10 μl of 1.5% creatine and 10 μl of 15% alpha-napthol dissolved in 2.5 N NaOH. The red colored reaction product was quantified by absorbance at 525 nm.

ΔaroA E. coli = assay: Genetic complementation of aroA mutation in E. coli; assay type: cell-based; settings: ΔaroA E. coli transformed with pAX473; M63 alone
From the text: The E. coli aroA gene codes for EPSP synthase, the target enzyme for glyphosate. […] However, genes encoding EPSPS activity can restore the ability to grow […] upon aroA mutant E. coli strains. Thus, a test for genetic complementation of an aroA mutant is a highly sensitive method to test if a gene is capable of functioning as an EPSPS in E. coli. Such tests for gene function by genetic complementation are known in the art.
A deletion of the aroA gene was created in E. coli XL-1 MRF′ (Stratagene) by PCR/recombination methods known in the art and outlined by Datsenko and Wanner, (2000) Proc. Natl. Acad. Sci. USA 97:6640-6645. This system is based on the Red system that allows for chromosomal disruptions of targeted sequences. A large portion (1067 nt of the 1283 nt) of the aroA coding region was disrupted by the engineered deletion.
The ability of an EPSPS to complement the mutant phenotype of ΔaroA was confirmed. Clone pAX482, an E. coli expression vector containing the wild-type E. coli aroA gene, was transformed into ΔaroA, and transformed cells were selected. These cells (containing a functional aroA gene residing on a plasmid) were then plated on LB media, M63, and M63 with amino acid supplements. […]

B1: GDC-2: glyphosate resistance-conferring decarboxylase protein (SEQ ID NO:3), acetolactate synthase homologue from strain ATX6837; purified as 6× His-tagged protein (protein)
chain: MLRSRQASKALRALGQARHFTSTTQPAAVQAPRKVASGQRNQATAATATSAAPNVRATPSPAFNAEEQQQQKHSHVQPLVNPQKSDMDESFIGKTGGEIFHEMMLRQGVKHIFGYPGGAILPVFDAIYNSKHFDFILPRHEQGAGHMAEGYARASGKPGVVLVTSGPGATNVVTPMQDALSDGTPLVVFCGQVPTSAIGSDAFQEADVVGISRACTKWNVMVKNVAELPRRINEAFEIATSGRPGPVLVDLPKDVTAGILRRAIPTETALPALPSAASRAAMESSRKHLEHTIKRVADLVNKAKQPVIYAGQGIIQSEGGPELLKELADKASIPVTTTLQGLGGFDELDEKSLHMLGMHGSAYANMAMQEADLIIALGARFDDRVTLNVAKFAPGARAAAAEKRGGIVHFEVMPKNINKVVQATEAVEGNVGSNLKLLLPEVQAKTMDDRKEWFGKINEWKKKWPLSHYERAERHGLIKPQTLIEELSKLTADRKDKTYIATGVGQHQMWTAQHFRWRHPRSMITSGGLGTMGFGLPAAIGAKVAQPDALVFDIDGDASFGMTLTELATAAQFNIGVKVIVLNNEEQGMVTQWQNLFYEDRYAHTHQVNPDFMKLAESMRVQGRRCVDPEDVVDSLKWLINTDGPALLEVVTDKKVPVLPMVPAGSALHEFLVFDGEKDKKRRELMRERTSGLHG
modifications: 6xHis tag; Fungal isolate from soil sample
notes: purified as 6× His-tagged protein
- Absorbance 525 nm (acetolactate synthase activity) ([1]; 5 μg GDC-2): 1.99
- Absorbance 525 nm (acetolactate synthase activity) ([1]; 10 μg GDC-2): 3.13
- Complementation of the aroA mutation (growth on M63 minimal media lacking aromatic amino acids) (ΔaroA E. coli): not capable of complementing the aroA mutation
